Laboratory results from PMC11780864, “RNA G-quadruplex structure-based PROTACs for targeted DHX36 protein degradation and gene activity modulation in mammalian cells”.

How the values were obtained:
[1] = molecular target: T1, RHAU53 peptide (DHX36 fragment) (UniProt Q9H2U1); assay: EMSA; EMSA and MST: 25 mM Tris-HCl pH 7.5, 150 mM KCl, 1 mM MgCl2, 37 C 30 min; 30 nM (EMSA) or 40 nM (MST) FAM-oligo; EMSA gel 10% native PAGE, 0.5x TBE, 4 C; settings: label: 3'-FAM; for binding result: non-G4
T1 chain: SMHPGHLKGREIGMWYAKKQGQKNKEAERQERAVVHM

[2] = molecular target: T1, RHAU53 peptide (DHX36 fragment); assay: EMSA; Kd1, first shift; EMSA and MST: 25 mM Tris-HCl pH 7.5, 150 mM KCl, 1 mM MgCl2, 37 C 30 min; 30 nM (EMSA) or 40 nM (MST) FAM-oligo; EMSA gel 10% native PAGE, 0.5x TBE, 4 C; settings: label: 3'-FAM; G4
[3] = molecular target: T1, RHAU53 peptide (DHX36 fragment); assay: competition; EMSA vs 30 nM FAM_dG4_A, 100 nM RHAU53; EMSA and MST: 25 mM Tris-HCl pH 7.5, 150 mM KCl, 1 mM MgCl2, 37 C 30 min; 30 nM (EMSA) or 40 nM (MST) FAM-oligo; EMSA gel 10% native PAGE, 0.5x TBE, 4 C; settings: G4

B1: FAM_rG4 mut_A (ssRNA)
RNA: GAGUUGCGGAGAGUGAGCCU
modifications: 5'-hexynyl clicked to AHPC-PEG2
B1: no binding [1].

B2: FAM_dG4 mut_A (ssDNA)
DNA: TTGTGTGTGTGTGTGTGT
modifications: 5'-hexynyl clicked to AHPC-PEG2
B2: no binding [1].

B3: FAM_rG4_P_C6 (structured_RNA)
RNA: GGGUUGCGGAGGGUGGGCCU
modifications: 5'-hexynyl clicked to pomalidomide-C6
Binder B3 has a Kd [2] of 160 ± 26.2 nM.

B4: FAM_rG4_A_PEG2 (FAM_rG4_A) (structured_RNA)
RNA: GGGUUGCGGAGGGUGGGCCU
modifications: 5'-hexynyl clicked to AHPC-PEG2 (VHL ligand)
For B4, the Kd [2] was 67.5 ± 13.2 nM.

B5: FAM_rG4_A_C6 (structured_RNA)
RNA: GGGUUGCGGAGGGUGGGCCU
modifications: 5'-hexynyl clicked to AHPC-C6
Binder B5 has a Kd [2] of 70.3 ± 9.3 nM.

B6: FAM_rG4 (5' Hexynyl_hTERC rG4 WT_3' FAM) (structured_RNA)
RNA: GGGUUGCGGAGGGUGGGCCU
modifications: 5'-hexynyl
In the case of B6, the Kd ([1]; G4) is reported as 66.7 ± 16.5 nM.

B7: FAM_rG4_P_PEG2 (structured_RNA)
RNA: GGGUUGCGGAGGGUGGGCCU
modifications: 5'-hexynyl clicked to pomalidomide-PEG2
Work on B7 yielded a Kd [2] of 132 ± 25.5 nM.

B8: FAM_dG4_A (T95-2T) (structured_DNA)
DNA: TTGGGTGGGTGGGTGGGT
modifications: 5'-hexynyl clicked to AHPC-PEG2
For B8, the Kd [2] was 317 ± 45.1 nM.

B9: FAM_rG4_P_PEG1-C2 (structured_RNA)
RNA: GGGUUGCGGAGGGUGGGCCU
modifications: 5'-hexynyl clicked to pomalidomide-PEG1-C2
Work on B9 yielded a Kd [2] of 174 ± 35.3 nM.

B10: rG4_A (unlabelled) (structured_RNA)
RNA: GGGUUGCGGAGGGUGGGCCU
modifications: 5'-hexynyl clicked to AHPC-PEG2
In the case of B10, the IC50 [3] is reported as 176.8 ± 1 nM.
